B1: alkyl hydroperoxide reductase subunit C (AhpC) from Mycobacterium bovis (BCG strain), wild type (enzyme)
chain: MPLLTIGDQFPAYQLTALIGGDLSKVDAKQPGDYFTTITSDEHPGKWRVVFFWPKDFTFVCPTEIAAFSKLNDEFEDRDAQILGVSIDSEFAHFQWRAQHNDLKTLPFPMLSDIKRELSQAAGVLNADGVADRVTFIVDPNNEIQFVSATAGSVGRNVDEVLRVLDALQSDELCACNWRKGDPTLDAGELLKASA
B2: Mycobacterium bovis thioredoxin TrxC (natural protein)
chain: MTDSEKSATIKVTDASFATDVLSSNKPVLVDFWATWCGPCKMVAPVLEEIATERATDLTVAKLDVDTNPETARNFQVVSIPTLILFKDGQPVKRIVGAKGKAALLRELSDVVPNLN
B3: MbAhpC with deletion of the loop residues 23 to 34 (enzyme)
chain: MPLLTIGDQFPAYQLTALIGGDFTTITSDEHPGKWRVVFFWPKDFTFVCPTEIAAFSKLNDEFEDRDAQILGVSIDSEFAHFQWRAQHNDLKTLPFPMLSDIKRELSQAAGVLNADGVADRVTFIVDPNNEIQFVSATAGSVGRNVDEVLRVLDALQSDELCACNWRKGDPTLDAGELLKASA

Tests used:
SEC = molecular target: the molecule itself; test: SEC
[1] = molecular target: the molecule itself; test: negative-stain electron microscopy with 2D classification
[2] = molecular target: B1; test: NMR titration; conditions: both partners purified

| Binder | stoichiometry N (SEC) | stoichiometry N [1] | binding result [2] |
| --- | --- | --- | --- |
| B1 | 2 | 12 |  |
| B2 |  |  | binds |
| B3 | 2 |  |  |
